Reference: publication PMC3258144

Molecular target: Dnmt3a-C WT (mouse, UniProt O88508 608-908)
Assay: fluorescence anisotropy

Dnmt3a-C WT, sequence (O88508 608-908): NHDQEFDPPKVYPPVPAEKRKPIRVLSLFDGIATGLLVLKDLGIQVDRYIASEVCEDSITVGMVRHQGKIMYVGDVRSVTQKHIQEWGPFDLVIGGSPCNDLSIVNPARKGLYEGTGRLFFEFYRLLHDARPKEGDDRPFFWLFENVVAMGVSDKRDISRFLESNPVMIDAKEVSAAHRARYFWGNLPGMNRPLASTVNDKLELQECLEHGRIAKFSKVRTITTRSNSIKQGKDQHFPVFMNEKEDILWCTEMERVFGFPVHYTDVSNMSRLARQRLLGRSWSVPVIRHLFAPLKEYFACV

B1: 2CG-Cy5 29-mer (dsDNA)
DNA 1: ACTTGCAACGGTCCTAACCGTCACCTCTT
DNA 2: AAGAGGTGACGGTTAGGACCGTTGCAAGT
Kd: 190 ± 10 nM

B2: Non-CG-Cy5 29-mer (dsDNA)
DNA 1: ACTTGCAACAGTCCTAACATTCACCTCTT
DNA 2: AAGAGGTGAATGTTAGGACTGTTGCAAGT
Kd: 130 ± 12 nM
